According to patent US20180044429A1 (CELLDEX THERAPEUTICS, published 2018):
Numbering of substitutions follows the chain as printed. Blank lines part the entries; values can stand above or below the binder they belong to.

Key:
[1] = target: soluble recombinant human CD27 with R87A substitution (human) (UniProt P26842); assay: ELISA; mutated (R87A) CD27 captured on plates coated with anti-FLAG antibody, detection with goat anti-human IgG Fc-HRP; panel title 'mutated CD27'
[2] = target: T1, recombinant human CD27 (soluble, captured on anti-FLAG coated ELISA plates) (human, UniProt P26842 20-191); assay: ELISA; CD27 captured on plates coated with anti-FLAG antibody, detection with goat anti-human IgG Fc-HRP; panel title 'Recombinant CD27'
T1 construct: also called rCD27; sCD27
T1 sequence: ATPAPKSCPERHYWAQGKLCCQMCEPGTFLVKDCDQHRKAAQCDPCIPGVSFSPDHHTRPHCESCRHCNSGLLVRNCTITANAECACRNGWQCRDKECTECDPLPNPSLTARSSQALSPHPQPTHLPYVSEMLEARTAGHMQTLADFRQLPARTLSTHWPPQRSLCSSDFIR
Experimental: In this example, the binding activity of the CD27 agonists prepared as described in Example 2 was examined. Binding to recombinant CD27 (rCD27) was tested by standard ELISA. Human CD27 was captured on ELISA plates coated with anti-FLAG antibody, followed by incubation with CD27 agonists. A goat anti-human IgG Fc-HRP (horseradish peroxidase) antibody and substrate Super Blue TMB were used for detection.
The CD27 agonists tested were 1F5mAb-1F5sFv (sFv), 1F5mAb-2C2sFv (sFv) and 1F5mAb-CD70. The full-length, unconjugated IgG form of the anti-human CD27 monoclonal antibodies 1F5 and 2C2 were used as positive controls. Binding to a mutant form of soluble CD27, in which the arginine at position 87 was substituted with alanine (R87A), which is within the 1F5 binding site, was also tested.

- EC50 (read off the curve) [1]: 0.02 µg/mL
- binding result [2]: binds
B1: human anti-human CD27 monoclonal antibody 2C2 (full-length, unconjugated IgG) (antibody, V domains shown)
VH: QVQLVESGGGVVQPGRSLRLSCAASGFTFSSYDIHWVRQAPGKGLEWVAVIWNDGSNKYYADSVKGRFTISRDNSTNSLFLQMNSLRAEDTAVYYCVGGTADLEHWDQGTLVTVSS
VL: DIQMTQSPSSLSASVGDRVTITCRASQGISSWLAWYQQKPEKAPKSLIYAASSLQSGVPSRFSGSGSGTDFTLTISSLQPEDFATYYCQQYNSYPLTFGGGTKVEIK
notes: Tested as full-length unconjugated IgG; also called 2C2 mAb

- binding result [2]: binds
B2: human anti-human CD27 monoclonal antibody 1F5 (full-length, unconjugated IgG) (antibody, V domains shown)
VH: QVQLVESGGGVVQPGRSLRLSCAASGFTFSSYDMHWVRQAPGKGLEWVAVIWYDGSNKYYADSVKGRFTISRDNSKNTLYLQMNSLRAEDTAVYYCARGSGNWGFFDYWGQGTLVTVSS
VL: B1 VL with S31R, S93T, L96R, G100Q
notes: also called 1F5 mAb; anti-CD27 antibody (1F5)
